Where two headings read alike, the source gives them in different places.
B1: AT15-012 (antibody, V domains shown)
VH: QVQLVQSGAEVKKPGSSVKVSCKASGGNFNIFPITWVRQAPGQGLEWMGEIIPMLGTPEYAQKFQGRVTITADKSTGTAFMELSSLRSEDTAVYYCARTETTLPGTLFFVYYFHFWGQGTPVTVSS
VL: EIVMTQSPVTLSVSPGERAILSCRASQSVSSSLAWYQQKPGQAPRLLIYGASTRATGVPARFSGSGSGTEFTLTISSVQSEDYAIYFCQQYNDRPPWTFGQGTKVEIK
notes: also called AT15-12
B2: AT15-009 (antibody, V domains shown)
VH: QVLLVQSGAEVKKPGSSVKVSCKASGGTFSTYAISWLRQAPGQGPEWMGGIVPMFGITNYAQHFQGRITITADKSTSTAYMELSSLGSEDTAVYFCARDLRSGGTFFSRGFDLWGPGTKVTVSS
VL: EIVLTQSPGTLSLSPGERATLSCRASQSVSSSFLTWYQQKPGQAPRLLIFDASTRATGVPDRFSGSGSGTDFTLTISRLEPEDFGVYYCQQFDSSPTFGGGTKVEIK
B3: AT12-010 (antibody, V domains shown)
VH: QLQLVQSGAEVKKPGSSVKVSCKASGGTFTSYAINWVRQVPGQGLEWMGEISPVFGTTHYAQKFQGRLKITADESADTAYMELSSLRSDDTAVYYCGRDRAPRLCSGGRCHSPPDHWGQGTLVTVSS
VL: DIQMTQSPSSVSASVGDRVTITCRASQGFGNWLAWYQQKPGRAPKLLIFGASTLQNGVPSRFSGSASGTDFTLTITSLQPEDFATYYCLQTNTFPYTFGQGTKVEIKR
B4: AT12-007 (antibody, V domains shown)
VH: QVQLEQSGAEVKKPGASVKVSCKVSGYTLTELSMHWVRQAPGKGLEWMGSFDPADGERLYAQKFQGRVIMSEDTSTDTAYMELSSLRSEDAAVYYCATAPRMTMFGVIMALDSWGQGTLVTVSS
VL: DIQMTQSPSTLSASLGDRVTITCRASQNINKYLAWYQQKPGKAPKLLIYKASNLQSGVPSRFSGSGSGTDFILTISSLQPDDFATYYCQQYTTYSAWTFGQGTNVDIKR

Legend:
[1] = molecular target: T1, E1E2 of HCV isolate H77 (genotype 1a), wild type (Hepatitis C virus genotype 1a, strain …, UniProt P27958 192-383; P27958 384-746); assay: cell-based or functional assay
[2] = molecular target: E1E2 of HCV isolate AMS.4d.20875969 (genotype 4d) (Hepatitis C virus genotype 4d); assay: cell-based or functional assay
[3] = molecular target: T2, E1E2 of HCV isolate UKN4.11.1 (genotype 4) (Hepatitis C virus genotype 4); assay: cell-based or functional assay
[4] = molecular target: E1E2 of HCV isolate AMS.3a.21071213 (genotype 3a) (Hepatitis C virus genotype 3a); assay: cell-based or functional assay
[5] = molecular target: E1E2 of HCV isolate H77 with single mutation L413A (Hepatitis C virus genotype 1a, strain …, UniProt P27958 192-383; P27958 384-746); assay: ELISA, GNA-captured E1E2 lysate; EC50 wild type / EC50 mutant
[6] = molecular target: E1E2 of HCV isolate H77 with single mutation Y443A (Hepatitis C virus genotype 1a, strain …, UniProt P27958 192-383; P27958 384-746); assay: as above
[7] = molecular target: E1E2 of HCV isolate H77 with single mutation L441A (Hepatitis C virus genotype 1a, strain …, UniProt P27958 192-383; P27958 384-746); assay: as above
[8] = molecular target: E1E2 of HCV isolate H77 with single mutation R657A (Hepatitis C virus genotype 1a, strain …, UniProt P27958 192-383; P27958 384-746); assay: as above
[9] = molecular target: E1E2 of HCV isolate H77 with single mutation V538A (Hepatitis C virus genotype 1a, strain …, UniProt P27958 192-383; P27958 384-746); assay: as above
[10] = molecular target: E1E2 of HCV isolate H77 with single mutation D535A (Hepatitis C virus genotype 1a, strain …, UniProt P27958 192-383; P27958 384-746); assay: as above
[11] = molecular target: E1E2 of HCV isolate H77 with single mutation G436A (Hepatitis C virus genotype 1a, strain …, UniProt P27958 192-383; P27958 384-746); assay: as above
[12] = molecular target: E1E2 of HCV isolate H77 with single mutation D533A (Hepatitis C virus genotype 1a, strain …, UniProt P27958 192-383; P27958 384-746); assay: as above
[13] = molecular target: E1E2 of HCV isolate H77 with single mutation N532A (Hepatitis C virus genotype 1a, strain …, UniProt P27958 192-383; P27958 384-746); assay: as above
[14] = molecular target: E1E2 of HCV isolate H77 with single mutation A439G (Hepatitis C virus genotype 1a, strain …, UniProt P27958 192-383; P27958 384-746); assay: as above
[15] = molecular target: E1E2 of HCV isolate H77 with single mutation T526A (Hepatitis C virus genotype 1a, strain …, UniProt P27958 192-383; P27958 384-746); assay: as above
[16] = molecular target: E1E2 of HCV isolate H77 with single mutation N325A (in E1) (Hepatitis C virus genotype 1a, strain …, UniProt P27958 192-383; P27958 384-746); assay: as above
[17] = molecular target: E1E2 of HCV isolate H77 with single mutation G530A (Hepatitis C virus genotype 1a, strain …, UniProt P27958 192-383; P27958 384-746); assay: as above
[18] = molecular target: E1E2 of HCV isolate H77 with single mutation W420A (Hepatitis C virus genotype 1a, strain …, UniProt P27958 192-383; P27958 384-746); assay: as above
[19] = molecular target: E1E2 of HCV isolate H77 with single mutation N415A (Hepatitis C virus genotype 1a, strain …, UniProt P27958 192-383; P27958 384-746); assay: as above
[20] = molecular target: E1E2 of HCV isolate H77 with single mutation N209A (in E1) (Hepatitis C virus genotype 1a, strain …, UniProt P27958 192-383; P27958 384-746); assay: as above
[21] = molecular target: T1, E1E2 of HCV isolate H77 (genotype 1a), …; assay: cell-based or functional assay; remark: listed apart in the source
[22] = molecular target: E1E2 of HCV isolate AMS.1b.20877857 (genotype 1b) (Hepatitis C virus genotype 1b); assay: cell-based or functional assay
[23] = molecular target: T2, E1E2 of HCV isolate UKN4.11.1 (genotype …); assay: cell-based or functional assay; remark: listed apart in the source

Binder | IC50, HCVpp neutralization [1] [µg/mL] | IC50, HCVpp neutralization [2] [µg/mL] | IC50, HCVpp neutralization [3] [µg/mL] | IC50, HCVpp neutralization [4] [µg/mL] | relative binding, mutant vs wild type [5] [%] | relative binding, mutant vs wild type [6] [%] | relative binding, mutant vs wild type [7] [%] | relative binding, mutant vs wild type [8] [%] | relative binding, mutant vs wild type [9] [%] | relative binding, mutant vs wild type [10] [%] | relative binding, mutant vs wild type [11] [%] | relative binding, mutant vs wild type [12] [%] | relative binding, mutant vs wild type [13] [%] | relative binding, mutant vs wild type [14] [%] | relative binding, mutant vs wild type [15] [%] | relative binding, mutant vs wild type [16] [%] | relative binding, mutant vs wild type [17] [%] | relative binding, mutant vs wild type [18] [%] | relative binding, mutant vs wild type [19] [%] | relative binding, mutant vs wild type [20] [%] | further results
B1 | 0.26 | 1.16 | 1.66 | 0.9 | 132 | 103 | 83 | 138 | 103 | 52 | 91 | 82 | 125 | 94 | 82 | 94 | 48 | 111 | 101 | 99 | 
B2 | 0.14 | 2.26 | 1.33 | 0.71 | 112 | 64 | 57 | 123 | 126 | 55 | 93 | 94 | 118 | 97 | 87 | 103 | 52 | 102 | 116 | 105 | 
B3 |  |  |  |  |  |  |  |  |  |  |  |  |  |  |  |  |  |  |  |  | IC50, HCVpp neutralization [21]: 1.06 µg/mL; IC90, HCVpp neutralization [21]: > 50 µg/mL; IC50, HCVpp neutralization [22]: 0.47 µg/mL; IC90, HCVpp neutralization [22]: 8.51 µg/mL; IC50, HCVpp neutralization [23]: > 50 µg/mL; IC90, HCVpp neutralization [23]: > 50 µg/mL
B4 |  |  |  |  |  |  |  |  |  |  |  |  |  |  |  |  |  |  |  |  | IC50, HCVpp neutralization [21]: 2.67 µg/mL; IC90, HCVpp neutralization [21]: > 50 µg/mL; IC50, HCVpp neutralization [22]: 0.04 µg/mL; IC90, HCVpp neutralization [22]: 0.5 µg/mL; IC50, HCVpp neutralization [23]: 1.87 µg/mL; IC90, HCVpp neutralization [23]: > 50 µg/mL
